# Key:
# [1] = target: T1, PPARγ2 deletion mutants (Homo sapiens, UniProt P37231); test: GST-pull down assay with PPARγ2 deletion mutants (HEK-293T); format: binding; conditions: FIG. 3B, 3C
# T1 construct: expressed in transfected cells; host or cells: HEK-293T
# T1 sequence (P37231 139-505): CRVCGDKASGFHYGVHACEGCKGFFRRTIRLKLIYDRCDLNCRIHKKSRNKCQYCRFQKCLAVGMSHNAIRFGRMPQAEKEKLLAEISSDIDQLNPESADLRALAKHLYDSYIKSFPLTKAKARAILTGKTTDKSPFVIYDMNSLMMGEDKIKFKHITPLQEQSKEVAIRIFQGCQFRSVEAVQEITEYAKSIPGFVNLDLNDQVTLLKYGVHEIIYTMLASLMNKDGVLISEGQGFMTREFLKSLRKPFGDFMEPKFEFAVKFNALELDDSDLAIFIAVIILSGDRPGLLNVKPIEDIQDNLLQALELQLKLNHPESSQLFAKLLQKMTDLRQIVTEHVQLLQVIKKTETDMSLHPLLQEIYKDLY
# Experimental: (§1) The PPARγ2 protein has been reported to consist of an activation function 1 (AF-1, amino acids 1-138) domain, a DNA-binding domain (DBD, amino acids 139-203), a hinge region (amino acids 204-310), and an activation function 2 (AF-2, amino acids 311-505) domain (see FIG. 3A). Thus, GST-pull down assay was conducted to verify which domain part of PPARγ2 was bound to 14-3-3β and 14-3-3γ.
# (§2) HEK-293T cells were seeded in a 100 mm plate at a density of 2×10^6 cells per each well, and then transfected with Flag-PPARγ2 (1-505) DNA (4 μg), Flag-PPARγ2 (1-310) DNA (4 μg), Flag-PPARγ2 (139-505) DNA (4 μg), and mGST-14-3-3β (4 μg) or mGST-14-3-3γ (4 μg) using an E-fection plus reagent (Lugen). For Flag-PPARγ2 (1-310) DNA and Flag-PPARγ2 (139-505) DNA, DNA fragments amplified through polymerase chain reaction (PCR) were cloned into a pCMV-3Tag-1 vector using restriction enzymes Xhol and Apal. A ratio of DNA to the E-fection plus reagent was 1:2, and this method was performed according to a manufacturer's manual. The corresponding cells were washed with ice-cold PBS and lysed using 500 μl/well of a lysis buffer (150 mM NaCl, 1 mM EDTA, 1% Nonidet P-40, 5% glycerol, 25 mM tris-HCl, pH 7.5, protease inhibitor added), and the lysed cells were centrifuged at 10,000×g and 4° C. for 10 minutes to extract proteins. Thereafter, 1,000 μg of the proteins was reacted with 20 μl of glutathione Sepharose 4B beads (GE Healthcare, Buckinghamshire, UK) for 6 hours, and then washing of the beads with 1 ml of ice-cold PBS was repeated 5 times, and the beads were boiled at 100° C. for 10 minutes, followed by 10% SDS-PAGE gel separation and western blotting. A ratio of GST antibodies (Santa Cruz) to Flag antibodies (Santa Cruz) was 1:3000. The detection of each protein was performed using West Pico ECL (Thermo scientific, Rockford, Ill.) and identified in a darkroom.
# [2] = target: T2, PPARγ2 deletion mutants (Homo sapiens, UniProt P37231); test: as above; format: binding; conditions: FIG. 3B, 3C; remark: listed apart in the source
# T2 construct: expressed in transfected cells; host or cells: HEK-293T
# T2 sequence (P37231 1-310): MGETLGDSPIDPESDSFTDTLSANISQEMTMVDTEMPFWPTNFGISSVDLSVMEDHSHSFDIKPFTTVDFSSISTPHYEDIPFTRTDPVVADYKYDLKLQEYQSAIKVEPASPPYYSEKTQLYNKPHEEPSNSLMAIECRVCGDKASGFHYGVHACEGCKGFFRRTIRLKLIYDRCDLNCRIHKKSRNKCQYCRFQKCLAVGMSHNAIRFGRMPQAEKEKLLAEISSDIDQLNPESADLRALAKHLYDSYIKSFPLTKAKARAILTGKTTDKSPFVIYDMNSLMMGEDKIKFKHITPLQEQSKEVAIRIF
# Experimental: as §1, §2
# [3] = test system: HepG2 cells; test: Oil Red-O lipid accumulation, HepG2 cells; format: cell-based; conditions: 14-3-3 overexpression, 200 μM oleic acid 72 hours, FIG. 9B
# Experimental: HepG2 cells and primary mouse hepatocytes were separately seeded in a 6-well plate at a density of 4×10^5 cells per each well, and then transfected with GFP-14-3-3β DNA (1 μg) or GFP-14-3-3γ DNA (1 μg) and si-14-3-3β (10 μM, Santa Cruz) or si-14-3-3γ (10 μM, Santa Cruz) using an E-fection plus reagent (Lugen). A ratio of DNA to the E-fection plus reagent was 1:2, and this method was performed according to a manufacturer's manual. […] The stained cells were bleached with 1 ml of isopropanol and analyzed at a wavelength of 550 nm using a DU530 spectrophotometer (Beckman Instruments, Palo Alto, Calif.).
# [4] = test system: HepG2 cells; test: Triglyceride colorimetric assay, HepG2 cells; format: cell-based; conditions: 14-3-3 overexpression, 200 μM oleic acid 72 hours, FIG. 10A
# Experimental: A triglyceride (neutral fat) is a type of fatty acid and is used as an index of a fat content. A biochemical lipid test was carried out by measuring an amount of triglycerides. HepG2 cells and primary mouse hepatocytes were separately seeded in a 6-well plate at a density of 4×10^5 cells per each well, and then transfected with GFP-14-3-3β DNA (1 μg) or GFP-14-3-3γ DNA (1 μg) and si-14-3-3β (10 μM, Santa Cruz) or si-14-3-3γ (10 μM, Santa Cruz) using an E-fection plus reagent (Lugen). A ratio of DNA to the E-fection plus reagent was 1:2, and this method was performed according to a manufacturer's manual. After transfection, the cells were treated with 200 μM of oleic acid (OA) for 72 hours, and the amount of triglycerides was measured using a triglyceride colorimetric assay kit (Cayman Chemical). The corresponding cells were washed with ice-cold PBS and then scraped using a standard diluent assay reagent, the scrapping process was repeated using a sonicator 20 times to lyse the cells, and the lysed cells were reacted with an enzyme buffer solution for 15 minutes, followed by measurement using an ELISA reader (Bio-Rad Laboratories, Inc) at a wavelength of 550 nm.
Substance,binding to PPARγ2 deletion mutant (139-505) [1],binding to PPARγ2 deletion mutant (1-310) [2],lipid accumulation by oleic acid (Oil Red-O) [3],triglyceride accumulation [4]
"14-3-3β: 14-3-3 isoform protein, overexpressed by DNA transfection; regulating factor that increases transcriptional activity of PPARγ2",bound,bound,increased lipid accumulation,further increased
"14-3-3γ: 14-3-3 isoform protein, overexpressed by DNA transfection; regulating factor that decreases transcriptional activity of PPARγ2",bound,bound,reduced lipid accumulation,reduced triglyceride accumulation
